Tests used:
Assay in all cases: ELONA
Settings in all cases: stem-loop (predicted)
[1] = target: Botulinum neurotoxin type A holotoxin (BoNT A HT) (UniProt P0DPI1;P0DPI1 P0DPI1:2-448,P0DPI1:449-1296)
[2] = target: Botulinum neurotoxin type B light chain (UniProt B1INP5 B1INP5:2-441)
[3] = target: Botulinum neurotoxin type A light chain (50 kDa zinc endopeptidase) (UniProt P0DPI1 P0DPI1:2-448)
[4] = target: Botulinum neurotoxin type B holotoxin (BoNT B HT) (UniProt B1INP5;B1INP5 B1INP5:2-441,B1INP5:442-1291)

Measured: binding result

Sequence of Botulinum neurotoxin type A light chain (50 kDa zinc endopeptidase) (P0DPI1 2-448, one chain of several): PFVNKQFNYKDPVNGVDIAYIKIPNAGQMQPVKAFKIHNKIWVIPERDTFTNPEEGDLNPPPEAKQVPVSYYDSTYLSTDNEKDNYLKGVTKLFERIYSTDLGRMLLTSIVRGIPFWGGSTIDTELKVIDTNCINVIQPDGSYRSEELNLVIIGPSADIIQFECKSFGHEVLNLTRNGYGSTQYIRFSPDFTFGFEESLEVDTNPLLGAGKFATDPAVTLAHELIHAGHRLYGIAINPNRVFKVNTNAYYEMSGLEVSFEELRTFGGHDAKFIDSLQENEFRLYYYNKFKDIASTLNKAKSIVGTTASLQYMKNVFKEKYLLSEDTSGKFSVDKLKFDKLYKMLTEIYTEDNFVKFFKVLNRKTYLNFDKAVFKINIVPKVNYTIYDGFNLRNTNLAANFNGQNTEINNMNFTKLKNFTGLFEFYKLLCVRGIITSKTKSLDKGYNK
Sequence of Botulinum neurotoxin type A holotoxin (BoNT A HT) (P0DPI1 2-448, chain 1 of 2): as the sequence (P0DPI1 2-448, one chain of several) above
Sequence of Botulinum neurotoxin type A holotoxin (BoNT A HT) (P0DPI1 449-1296, chain 2 of 2): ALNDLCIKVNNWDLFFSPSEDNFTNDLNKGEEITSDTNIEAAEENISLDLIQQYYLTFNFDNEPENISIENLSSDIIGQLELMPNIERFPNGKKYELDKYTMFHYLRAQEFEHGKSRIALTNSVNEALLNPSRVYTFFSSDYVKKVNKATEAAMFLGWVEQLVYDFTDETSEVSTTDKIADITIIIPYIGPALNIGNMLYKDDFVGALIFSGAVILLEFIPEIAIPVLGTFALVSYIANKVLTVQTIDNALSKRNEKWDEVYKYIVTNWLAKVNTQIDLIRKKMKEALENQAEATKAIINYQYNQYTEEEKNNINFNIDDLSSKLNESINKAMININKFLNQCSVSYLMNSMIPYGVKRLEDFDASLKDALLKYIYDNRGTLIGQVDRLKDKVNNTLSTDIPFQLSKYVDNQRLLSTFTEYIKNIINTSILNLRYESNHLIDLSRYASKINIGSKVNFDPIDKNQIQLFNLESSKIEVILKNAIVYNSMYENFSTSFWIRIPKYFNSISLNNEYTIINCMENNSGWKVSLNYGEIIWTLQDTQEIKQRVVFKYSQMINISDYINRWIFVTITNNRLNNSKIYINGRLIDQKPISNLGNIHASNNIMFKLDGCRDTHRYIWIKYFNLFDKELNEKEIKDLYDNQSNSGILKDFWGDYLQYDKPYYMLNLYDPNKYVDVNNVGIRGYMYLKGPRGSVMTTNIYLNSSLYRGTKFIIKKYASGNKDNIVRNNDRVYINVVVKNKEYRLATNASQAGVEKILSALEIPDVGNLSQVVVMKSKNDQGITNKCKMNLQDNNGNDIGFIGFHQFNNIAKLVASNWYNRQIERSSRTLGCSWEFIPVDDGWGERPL
Sequence of Botulinum neurotoxin type B holotoxin (BoNT B HT) (B1INP5 2-441, chain 1 of 2): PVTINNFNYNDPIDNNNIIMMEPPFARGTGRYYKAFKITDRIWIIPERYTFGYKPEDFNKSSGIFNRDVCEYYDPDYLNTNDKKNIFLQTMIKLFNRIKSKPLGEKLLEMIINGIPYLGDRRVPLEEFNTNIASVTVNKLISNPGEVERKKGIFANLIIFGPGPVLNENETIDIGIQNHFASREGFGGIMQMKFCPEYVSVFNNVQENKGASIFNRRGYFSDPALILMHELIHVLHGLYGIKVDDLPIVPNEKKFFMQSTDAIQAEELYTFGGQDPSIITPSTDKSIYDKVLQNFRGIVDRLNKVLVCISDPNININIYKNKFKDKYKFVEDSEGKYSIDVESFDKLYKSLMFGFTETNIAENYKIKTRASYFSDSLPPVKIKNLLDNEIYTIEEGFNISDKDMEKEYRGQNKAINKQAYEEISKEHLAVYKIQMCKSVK
Sequence of Botulinum neurotoxin type B holotoxin (BoNT B HT) (B1INP5 442-1291, chain 2 of 2): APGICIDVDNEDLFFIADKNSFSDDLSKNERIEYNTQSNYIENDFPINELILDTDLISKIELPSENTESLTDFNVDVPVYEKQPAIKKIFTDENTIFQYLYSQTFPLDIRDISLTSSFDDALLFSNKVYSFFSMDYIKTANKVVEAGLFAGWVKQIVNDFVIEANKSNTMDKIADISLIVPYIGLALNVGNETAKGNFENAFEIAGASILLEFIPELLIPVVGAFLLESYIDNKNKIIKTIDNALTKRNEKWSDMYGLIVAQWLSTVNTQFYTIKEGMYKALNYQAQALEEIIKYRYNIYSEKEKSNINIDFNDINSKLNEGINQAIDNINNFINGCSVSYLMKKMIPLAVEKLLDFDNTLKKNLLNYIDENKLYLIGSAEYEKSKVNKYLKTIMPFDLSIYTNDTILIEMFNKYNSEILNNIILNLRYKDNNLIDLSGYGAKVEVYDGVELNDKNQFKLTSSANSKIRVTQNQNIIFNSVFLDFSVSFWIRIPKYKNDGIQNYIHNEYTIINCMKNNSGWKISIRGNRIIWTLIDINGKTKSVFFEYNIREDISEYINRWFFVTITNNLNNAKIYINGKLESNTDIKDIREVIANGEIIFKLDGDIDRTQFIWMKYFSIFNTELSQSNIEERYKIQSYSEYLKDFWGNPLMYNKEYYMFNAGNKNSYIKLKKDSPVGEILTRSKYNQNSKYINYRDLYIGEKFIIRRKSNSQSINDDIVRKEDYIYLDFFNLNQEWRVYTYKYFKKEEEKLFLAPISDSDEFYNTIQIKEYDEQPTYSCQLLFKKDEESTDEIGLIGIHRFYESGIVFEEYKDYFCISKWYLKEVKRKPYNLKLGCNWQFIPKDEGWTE
Sequence of Botulinum neurotoxin type B light chain (B1INP5 2-441, one chain of several): as the sequence (B1INP5 2-441, chain 1 of 2) above

B1: BoNT A/B HT aptamer (ssDNA)
DNA: CATCCGTCACACCTGCTCTGCTATCACATGCCTGCTGAAGTGGTGTTGGCTCCCGTATCA
binds: all assays above

B2: BoNT A/B LC aptamer (ssDNA)
DNA: CATCCGTCACACCTGCTCTGATCAGGGAAGACGCCAACACTGGTGTTGGCTCCCGTATCA
binds: all assays above

Source: patent publication US20120123096 (published 2012)
